Target: GST-MKK4 fusion protein (available from Upstate Biotechnologies, Inc)

Protein | phosphorylation of GST-MKK4 (32P incorporation from [gamma-32P]-ATP, SDS-PAGE, imaging)
purified mouse MEKK2 (protein) MDDQQALNSIMQDLAVLHKASRPALSLQETRKAKPSSPKKQNDVRVKFEHRGEKRILQVTRPVKLEDLRSKSKIAFGQSMDLHYTNNELVIPLTTQDDLDKAVELLDRSIHMKSLKILLVVNGSTQATNLEPSPSPEDLNNTPLGAERKKRLSVVGPPNRDRSSPPPGYIPDILHQIARNGSFTSINSEGEFIPESMDQMLDPLSLSSPENSGSGSCPSLDSPLDGESYPKSRMPRAQSYPDNHQEFTDYDNPIFEKFGKGGTYPRRYHVSYHHQEYNDGRKTFPRARRTQGTSFRSPVSFSPTDHSLSTSSGSSVFTPEYDDSRIRRRGSDIDNPTLTVTDISPPSRSPRAPTNWRLGKLLGQGAFGRVYLCYDVDTGRELAVKQVQFNPESPETSKEVNALECEIQLLKNLLHERIVQYYGCLRDPQEKTLSIFMELSPGGSIKDQLKAYGALTENVTRKYTRQILEGVHYLHSNMIVHRDIKGANILRDSTGNIKLGDFGASKRLQTICLSGTGMKSVTGTPYWMSPEVISGEGYGRKADIWSVACTVVEMLTEKPPWAEFEAMAAIFKIATQPTNPKLPPHVSDYTRDFLKRIFVEAKLRPSAEELLRHMFVHYH | comparable to the activity of purified mouse MEKK2
His-tagged hMEKK2 (polyhistidine-hMEKK2 fusion) (protein) HHHHHHMDDQQALNSIMQDLAVLHKASRPALSLQETRKAKSSSPKKQNDVRVKFEHRGEKRILQFPRPVKLEDLRSKAKIAFGQSMDLHYTNNELVIPLTTQDDLDKAVELLDRSIHMKSLKILLVINGSTQATNLEPLPSLEDLDNTVFGAERKKRLSIIGPTSRDRSSPPPGYIPDELHQVARNGSFTSINSEGEFIPESMDQMLDPLSLSSPENSGSGSCPSLDSPLDGESYPKSRMPRAQSYPDNHQEFSDYDNPIFEKFGKGGTYPRRYHVSYHHQEYNDGRKTFPRARRTQGTSLRSPVSFSPTDHSLSTSSGSSIFTPEYDDSRIRRRGSDIDNPTLTVMDISPPSRSPRAPTNWRLGKLLGQGAFGRVYLCYDVDTGRELAVKQVQFDPDSPETSKEVNALECEIQLLKNLLHERIVQYYGCLRDPQEKTLSIFMEYMPGGSIKDQLKAYGALTENVTRKYTRQILEGVHYLHSNMIVHRDIKGANILRDSTGNVKLGDFGASKRLQTICLSGTGMKSVTGTPYWMSPEVISGEGYGRKADIWSVACTVVEMLTEKPPWAEFEAMAAIFKIATQPTNPKLPPHVSDYTRDFLKRIFVEAKLRPSADELLRHMFVHYH | comparable to the activity of purified mouse MEKK2, and significantly above the background levels seen with control extracts
